Source: patent US20210139548A1 (published 2021)
*1 amine or outer side, *2 acyl side, *3 side chain or, on linkers, in order; H or OH if unused. Side-chain parts run from the residue outwards. The star is where a group is joined. C18 diacid = O=C(O)CCCCCCCCCCCCCCCCC(=O)*; γGlu = O=C(O)[C@H](CCC(=O)[*:2])N[*:1]; Isovaleryl = CC(C)CC(=O)*; AEEA = NCCOCCOCC(=O)O

B1: Compound 160 (peptide)
peptide: Isovaleryl-APEK([AEEA-AEEA-γGlu-C18 diacid])PEADAEPEELQRYYTSLRHYYNWLTRQRY-NH2
SMILES: CC(C)CC(=O)N[C@@H](C)C(=O)N1CCC[C@H]1C(=O)N[C@@H](CCC(=O)O)C(=O)N[C@@H](CCCCNC(=O)COCCOCCNC(=O)COCCOCCNC(=O)CC[C@H](NC(=O)CCCCCCCCCCCCCCCCC(=O)O)C(=O)O)C(=O)N1CCC[C@H]1C(=O)N[C@@H](CCC(=O)O)C(=O)N[C@@H](C)C(=O)N[C@@H](CC(=O)O)C(=O)N[C@@H](C)C(=O)N[C@@H](CCC(=O)O)C(=O)N1CCC[C@H]1C(=O)N[C@@H](CCC(=O)O)C(=O)N[C@@H](CCC(=O)O)C(=O)N[C@@H](CC(C)C)C(=O)N[C@@H](CCC(N)=O)C(=O)N[C@@H](CCCNC(=N)N)C(=O)N[C@@H](Cc1ccc(O)cc1)C(=O)N[C@@H](Cc1ccc(O)cc1)C(=O)N[C@H](C(=O)N[C@@H](CO)C(=O)N[C@@H](CC(C)C)C(=O)N[C@@H](CCCNC(=N)N)C(=O)N[C@@H](Cc1c[nH]cn1)C(=O)N[C@@H](Cc1ccc(O)cc1)C(=O)N[C@@H](Cc1ccc(O)cc1)C(=O)N[C@@H](CC(N)=O)C(=O)N[C@@H](Cc1c[nH]c2ccccc12)C(=O)N[C@@H](CC(C)C)C(=O)N[C@H](C(=O)N[C@@H](CCCNC(=N)N)C(=O)N[C@@H](CCC(N)=O)C(=O)N[C@@H](CCCNC(=N)N)C(=O)N[C@@H](Cc1ccc(O)cc1)C(N)=O)[C@@H](C)O)[C@@H](C)O
B2: Compound 169 (peptide)
peptide: Isovaleryl-APEK([AEEA-AEEA-γGlu-C18 diacid])PEEEASPEELQRYYVALRHYYNWLTRQRY-NH2
SMILES: CC(C)CC(=O)N[C@@H](C)C(=O)N1CCC[C@H]1C(=O)N[C@@H](CCC(=O)O)C(=O)N[C@@H](CCCCNC(=O)COCCOCCNC(=O)COCCOCCNC(=O)CC[C@H](NC(=O)CCCCCCCCCCCCCCCCC(=O)O)C(=O)O)C(=O)N1CCC[C@H]1C(=O)N[C@@H](CCC(=O)O)C(=O)N[C@@H](CCC(=O)O)C(=O)N[C@@H](CCC(=O)O)C(=O)N[C@@H](C)C(=O)N[C@@H](CO)C(=O)N1CCC[C@H]1C(=O)N[C@@H](CCC(=O)O)C(=O)N[C@@H](CCC(=O)O)C(=O)N[C@@H](CC(C)C)C(=O)N[C@@H](CCC(N)=O)C(=O)N[C@@H](CCCNC(=N)N)C(=O)N[C@@H](Cc1ccc(O)cc1)C(=O)N[C@@H](Cc1ccc(O)cc1)C(=O)N[C@H](C(=O)N[C@@H](C)C(=O)N[C@@H](CC(C)C)C(=O)N[C@@H](CCCNC(=N)N)C(=O)N[C@@H](Cc1c[nH]cn1)C(=O)N[C@@H](Cc1ccc(O)cc1)C(=O)N[C@@H](Cc1ccc(O)cc1)C(=O)N[C@@H](CC(N)=O)C(=O)N[C@@H](Cc1c[nH]c2ccccc12)C(=O)N[C@@H](CC(C)C)C(=O)N[C@H](C(=O)N[C@@H](CCCNC(=N)N)C(=O)N[C@@H](CCC(N)=O)C(=O)N[C@@H](CCCNC(=N)N)C(=O)N[C@@H](Cc1ccc(O)cc1)C(N)=O)[C@@H](C)O)C(C)C
B3: Compound 170 (peptide)
peptide: Isovaleryl-APEK([AEEA-AEEA-γGlu-C18 diacid])PEEEASPEELEQYYVSLRHYYNWLTRQRY-NH2
SMILES: CC(C)CC(=O)N[C@@H](C)C(=O)N1CCC[C@H]1C(=O)N[C@@H](CCC(=O)O)C(=O)N[C@@H](CCCCNC(=O)COCCOCCNC(=O)COCCOCCNC(=O)CC[C@H](NC(=O)CCCCCCCCCCCCCCCCC(=O)O)C(=O)O)C(=O)N1CCC[C@H]1C(=O)N[C@@H](CCC(=O)O)C(=O)N[C@@H](CCC(=O)O)C(=O)N[C@@H](CCC(=O)O)C(=O)N[C@@H](C)C(=O)N[C@@H](CO)C(=O)N1CCC[C@H]1C(=O)N[C@@H](CCC(=O)O)C(=O)N[C@@H](CCC(=O)O)C(=O)N[C@@H](CC(C)C)C(=O)N[C@@H](CCC(=O)O)C(=O)N[C@@H](CCC(N)=O)C(=O)N[C@@H](Cc1ccc(O)cc1)C(=O)N[C@@H](Cc1ccc(O)cc1)C(=O)N[C@H](C(=O)N[C@@H](CO)C(=O)N[C@@H](CC(C)C)C(=O)N[C@@H](CCCNC(=N)N)C(=O)N[C@@H](Cc1c[nH]cn1)C(=O)N[C@@H](Cc1ccc(O)cc1)C(=O)N[C@@H](Cc1ccc(O)cc1)C(=O)N[C@@H](CC(N)=O)C(=O)N[C@@H](Cc1c[nH]c2ccccc12)C(=O)N[C@@H](CC(C)C)C(=O)N[C@H](C(=O)N[C@@H](CCCNC(=N)N)C(=O)N[C@@H](CCC(N)=O)C(=O)N[C@@H](CCCNC(=N)N)C(=O)N[C@@H](Cc1ccc(O)cc1)C(N)=O)[C@@H](C)O)C(C)C
B4: Compound 166 (peptide)
peptide: Isovaleryl-APEK([AEEA-AEEA-γGlu-C18 diacid])PPADASPEELQRYYVELRHYYNWLTRQRY-NH2
SMILES: CC(C)CC(=O)N[C@@H](C)C(=O)N1CCC[C@H]1C(=O)N[C@@H](CCC(=O)O)C(=O)N[C@@H](CCCCNC(=O)COCCOCCNC(=O)COCCOCCNC(=O)CC[C@H](NC(=O)CCCCCCCCCCCCCCCCC(=O)O)C(=O)O)C(=O)N1CCC[C@H]1C(=O)N1CCC[C@H]1C(=O)N[C@@H](C)C(=O)N[C@@H](CC(=O)O)C(=O)N[C@@H](C)C(=O)N[C@@H](CO)C(=O)N1CCC[C@H]1C(=O)N[C@@H](CCC(=O)O)C(=O)N[C@@H](CCC(=O)O)C(=O)N[C@@H](CC(C)C)C(=O)N[C@@H](CCC(N)=O)C(=O)N[C@@H](CCCNC(=N)N)C(=O)N[C@@H](Cc1ccc(O)cc1)C(=O)N[C@@H](Cc1ccc(O)cc1)C(=O)N[C@H](C(=O)N[C@@H](CCC(=O)O)C(=O)N[C@@H](CC(C)C)C(=O)N[C@@H](CCCNC(=N)N)C(=O)N[C@@H](Cc1c[nH]cn1)C(=O)N[C@@H](Cc1ccc(O)cc1)C(=O)N[C@@H](Cc1ccc(O)cc1)C(=O)N[C@@H](CC(N)=O)C(=O)N[C@@H](Cc1c[nH]c2ccccc12)C(=O)N[C@@H](CC(C)C)C(=O)N[C@H](C(=O)N[C@@H](CCCNC(=N)N)C(=O)N[C@@H](CCC(N)=O)C(=O)N[C@@H](CCCNC(=N)N)C(=O)N[C@@H](Cc1ccc(O)cc1)C(N)=O)[C@@H](C)O)C(C)C
B5: Compound 163 (peptide)
peptide: Isovaleryl-APEK([AEEA-AEEA-γGlu-C18 diacid])PEEAASPEELQRYYVALRHYYNWLTRQRY-NH2
SMILES: CC(C)CC(=O)N[C@@H](C)C(=O)N1CCC[C@H]1C(=O)N[C@@H](CCC(=O)O)C(=O)N[C@@H](CCCCNC(=O)COCCOCCNC(=O)COCCOCCNC(=O)CC[C@H](NC(=O)CCCCCCCCCCCCCCCCC(=O)O)C(=O)O)C(=O)N1CCC[C@H]1C(=O)N[C@@H](CCC(=O)O)C(=O)N[C@@H](CCC(=O)O)C(=O)N[C@@H](C)C(=O)N[C@@H](C)C(=O)N[C@@H](CO)C(=O)N1CCC[C@H]1C(=O)N[C@@H](CCC(=O)O)C(=O)N[C@@H](CCC(=O)O)C(=O)N[C@@H](CC(C)C)C(=O)N[C@@H](CCC(N)=O)C(=O)N[C@@H](CCCNC(=N)N)C(=O)N[C@@H](Cc1ccc(O)cc1)C(=O)N[C@@H](Cc1ccc(O)cc1)C(=O)N[C@H](C(=O)N[C@@H](C)C(=O)N[C@@H](CC(C)C)C(=O)N[C@@H](CCCNC(=N)N)C(=O)N[C@@H](Cc1c[nH]cn1)C(=O)N[C@@H](Cc1ccc(O)cc1)C(=O)N[C@@H](Cc1ccc(O)cc1)C(=O)N[C@@H](CC(N)=O)C(=O)N[C@@H](Cc1c[nH]c2ccccc12)C(=O)N[C@@H](CC(C)C)C(=O)N[C@H](C(=O)N[C@@H](CCCNC(=N)N)C(=O)N[C@@H](CCC(N)=O)C(=O)N[C@@H](CCCNC(=N)N)C(=O)N[C@@H](Cc1ccc(O)cc1)C(N)=O)[C@@H](C)O)C(C)C
B6: Compound 165 (peptide)
peptide: Isovaleryl-APEK([AEEA-AEEA-γGlu-C18 diacid])PEEDASPEELQRYQVSLRHYYNWLTRQRY-NH2
SMILES: CC(C)CC(=O)N[C@@H](C)C(=O)N1CCC[C@H]1C(=O)N[C@@H](CCC(=O)O)C(=O)N[C@@H](CCCCNC(=O)COCCOCCNC(=O)COCCOCCNC(=O)CC[C@H](NC(=O)CCCCCCCCCCCCCCCCC(=O)O)C(=O)O)C(=O)N1CCC[C@H]1C(=O)N[C@@H](CCC(=O)O)C(=O)N[C@@H](CCC(=O)O)C(=O)N[C@@H](CC(=O)O)C(=O)N[C@@H](C)C(=O)N[C@@H](CO)C(=O)N1CCC[C@H]1C(=O)N[C@@H](CCC(=O)O)C(=O)N[C@@H](CCC(=O)O)C(=O)N[C@@H](CC(C)C)C(=O)N[C@@H](CCC(N)=O)C(=O)N[C@@H](CCCNC(=N)N)C(=O)N[C@@H](Cc1ccc(O)cc1)C(=O)N[C@@H](CCC(N)=O)C(=O)N[C@H](C(=O)N[C@@H](CO)C(=O)N[C@@H](CC(C)C)C(=O)N[C@@H](CCCNC(=N)N)C(=O)N[C@@H](Cc1c[nH]cn1)C(=O)N[C@@H](Cc1ccc(O)cc1)C(=O)N[C@@H](Cc1ccc(O)cc1)C(=O)N[C@@H](CC(N)=O)C(=O)N[C@@H](Cc1c[nH]c2ccccc12)C(=O)N[C@@H](CC(C)C)C(=O)N[C@H](C(=O)N[C@@H](CCCNC(=N)N)C(=O)N[C@@H](CCC(N)=O)C(=O)N[C@@H](CCCNC(=N)N)C(=O)N[C@@H](Cc1ccc(O)cc1)C(N)=O)[C@@H](C)O)C(C)C

Molecular target: T1, human neuropeptide Y2 receptor (human, UniProt P49146 1-381)
T1 construct: whole, on cells; also called hNPY2 receptor; hNPY2-R
T1 sequence (looked up): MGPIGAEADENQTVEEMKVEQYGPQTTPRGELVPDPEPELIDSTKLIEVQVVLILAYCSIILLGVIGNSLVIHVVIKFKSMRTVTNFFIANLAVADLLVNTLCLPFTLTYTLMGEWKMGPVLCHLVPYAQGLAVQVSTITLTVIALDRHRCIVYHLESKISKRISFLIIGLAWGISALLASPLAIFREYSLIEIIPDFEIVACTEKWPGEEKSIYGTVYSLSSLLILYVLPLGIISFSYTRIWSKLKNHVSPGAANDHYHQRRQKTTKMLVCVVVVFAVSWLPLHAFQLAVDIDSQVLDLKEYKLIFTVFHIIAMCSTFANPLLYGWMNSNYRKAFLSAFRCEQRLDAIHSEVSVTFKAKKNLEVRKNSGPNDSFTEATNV
Assay: radioligand competition (125I-PYY(1-36)), hNPY2R membranes
Summary of the method: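 Commercial human Y2 receptor membranes (0.5 μg protein/well) were incubated with peptide for 2 h at room temperature in 50 mM HEPES, 5 mM MgCl₂, 1 mM CaCl₂, pH 7.4, with 0.2% ovalbumin. Bound radioligand was separated on PEI-soaked GF/C filters and counted by scintillation, and IC₅₀ came from nonlinear sigmoidal regression.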

Row | Binder | Ki
1 | B1 | 2 nM
2 | B2 | 2.34 nM
3 | B3 | 12.3 nM
4 | B4 | 0.66 nM
5 | B5 | 0.96 nM
6 | B6 | 2.49 nM
